This note sets out measurements from patent publication US20240309093A1 (MINGHUI PHARMACEUTICAL HANGZHOU, published 2024).

Sequences and labels used below:
B1: MHPD1-A-16 H Fc (Fc fusion, not shown: a dimerising Fc or GST; small tags and cut ends)
VHH: QVQLVESGGGLVQPGGSLRLSCATSGSRVSIYAMGWFRQAPGKGLEFVAGIGWAYATTYYADSVKGRFTISRDNTKNTLYLQMNSLRAEDTAVYYCAADLDHSGFDYWGQGTLVTVSS
B2: MHPD1-A-27 H Fc (Fc fusion)
VHH: QVQLVESGGGLVQPGGSLRLSCATSKSRRSIYAMGWFRQAPGKGLEFVAGIGWAYATTYYADSVKGRFTISRDNTKNTLYLQMNSLRAEDTAVYYCAADLDHSGFDYWGQGTLVTVSS
notes: not shown: Fc region
B3: MHPD1-A-24 H Fc (Fc fusion)
chain: QVQLVESGGGLVQPGGSLRLSCATSGSRHSIYAMGWFRQAPGKGLEFVAGIGWAYATTYYADSVKGRFTISRDNTKNTLYLQMNSLRAEDTAVYYCAADLDRAGFDYWGQGTLVTVSS
notes: not shown: Fc
B4: MHPD1-A-31 H Fc (Fc fusion)
VHH: QVQLVESGGGLVQPGGSLRLSCATSGSRRSIYAMGWFRQAPGKGLEFVAGLGWAYATTYYADSVKGRFTISRDNTKNTLYLQMNSLRAEDTAVYYCAADLDHHGFDYWGQGTLVTVSS
notes: not shown: Fc region
B5: MHPD1-A-33 H Fc (Fc fusion)
VHH: QVQLVESGGGLVQPGGSLRLSCATSGSRSQIYAMGWFRQAPGKGLEFVAGIGWAYATTYYADSVKGRFTISRDNTKNTLYLQMNSLRAEDTAVYYCAADLDHSGFDYWGQGTLVTVSS
notes: not shown: Fc region
B6: MHPD1-A-35 H Fc (Fc fusion)
VHH: QVQLVESGGGLVQPGGSLRLSCATSAPRRSIYAMGWFRQAPGKGLEFVAGIGWAYGTTYYADSVKGRFTISRDNTKNTLYLQMNSLRAEDTAVYYCAADLDHSGFDYWGQGTLVTVSS
notes: not shown: Fc region
B7: MHPD1-A-22 H Fc (Fc fusion)
VHH: QVQLVESGGGLVQPGGSLRLSCATSGSRRSIYAMGWFRQAPGKGLEFVAGIGWAYATTYYADSVKGRFTISRDNTKNTLYLQMNSLRAEDTAVYYCAADLDRGGFDYWGQGTLVTVSS
notes: not shown: Fc region
B8: MHPD1-A-19 H Fc (Fc fusion, not shown: a dimerising Fc or GST; small tags and cut ends)
VHH: QVQLVESGGGLVQPGGSLRLSCATSGSEVSIYAMGWFRQAPGKGLEFVAGIGWAYATTYYADSVKGRFTISRDNTKNTLYLQMNSLRAEDTAVYYCAADLDRRGFDYWGQGTLVTVSS
B9: MHPD1-A-28 H Fc (Fc fusion)
VHH: QVQLVESGGGLVQPGGSLRLSCATSKLRRSIYAMGWFRQAPGKGLEFVAGIGWAYATQYYADSVKGRFTISRDNTKNTLYLQMNSLRAEDTAVYYCAADLDHSGFDYWGQGTLVTVSS
notes: not shown: Fc region
B10: MHPD1-A-25 H Fc (Fc fusion)
chain: QVQLVESGGGLVQPGGSLRLSCATSGVRRSIYAMGWFRQAPGKGLEFVAGIGWAYATTYYADSVKGRFTISRDNTKNTLYLQMNSLRAEDTAVYYCAADLDRHGFDYWGQGTLVTVSS
notes: not shown: Fc
B11: MHPD1-A-18 H Fc (Fc fusion, not shown: a dimerising Fc or GST; small tags and cut ends)
VHH: QVQLVESGGGLVQPGGSLRLSCATSGSRSSIYAMGWFRQAPGKGLEFVAGLGWAYATTYYADSVKGRFTISRDNTKNTLYLQMNSLRAEDTAVYYCAADLDHLGFDYWGQGTLVTVSS
B12: MHPD1-A-17 H Fc (Fc fusion, not shown: a dimerising Fc or GST; small tags and cut ends)
VHH: QVQLVESGGGLVQPGGSLRLSCATSGSISSIYAMGWFRQAPGKGLEFVAGIGWAYATTYYADSVKGRFTISRDNTKNTLYLQMNSLRAEDTAVYYCAADLDHSGFDYWGQGTLVTVSS
B13: MHPD1-A-29 H Fc (Fc fusion)
VHH: QVQLVESGGGLVQPGGSLRLSCATSGSGGSIYAMGWFRQAPGKGLEFVAGIGWAYATTYYADSVKGRFTISRDNTKNTLYLQMNSLRAEDTAVYYCAADLDHSGFDYWGQGTLVTVSS
notes: not shown: Fc region

The target of this test is T1, recombinant human PD-1-his protein (human, UniProt Q15116 25-167).
T1 construct: also called hPD-1-his; not shown: his tag
T1 sequence (Q15116 25-167 limits assumed): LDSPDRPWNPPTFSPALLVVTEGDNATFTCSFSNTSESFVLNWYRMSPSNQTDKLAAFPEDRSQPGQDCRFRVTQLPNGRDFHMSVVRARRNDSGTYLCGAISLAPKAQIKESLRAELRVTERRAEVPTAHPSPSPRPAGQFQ
Nature of the test: ELISA; PD-1-his coated 2 µg/mL, anti-human IgG Fc-HRP. The method, then:
The plates were washed three times with PBST. 5% PBS-Milk and incubated at room temperature for 2 h. The plates were washed three times with PBST. All the nanobody-Fc fusion proteins were subject to 3-folded gradient dilution with an initial concentration of 10 μg/mL, added into each well at 30 μL/well, and incubated at room temperature for 1 hr. The plates were washed three times with PBST. The secondary antibody Goat-Anti-Human-IgG-Fc-HRP was diluted at 1:8000, added into each well at 30 μL/well, and incubated at room temperature for 50 min. The plates were washed nine times with PBST. TMB was added into each well at 30 μL/well and developed at room temperature in dark for 1 min to 5 min. 2 M hydrochloric acid was added at 30 μL/well to stop the reaction. The OD450 absorbance value was read by a microplate reader. Graphpad Prism software was used to fit the curve and calculate EC₅₀ values.
For orientation: An ELISA detects its analyte on a solid surface through an enzyme-linked reagent.
Regarding B1, the EC50 (in general, the concentration needed to bring the measured effect to its halfway point) stood at 0.187 nM.

Consider B2, for which the 50% effective concentration (EC50) amounted to 0.54 nM.

With B3, the EC50 was determined as 0.177 nM.

Regarding B4, the EC50 came to 0.219 nM.

Regarding B5, the 50% effective concentration (EC50) stood at 0.628 nM.

For the molecule B6, the EC50 was 0.824 nM.

On to B7, for which the EC50 turned out to be 0.242 nM.

Consider B8, for which the EC50 came to 0.27 nM.

For B9, the half-maximal effective concentration (EC50) stood at 0.242 nM.

Turning to B10, the half-maximal effective concentration (EC50) is 0.211 nM.

Take B11: the EC50 is 0.178 nM.

B12: the EC50 worked out at 0.196 nM.

B13: the EC50 is 2.18 nM.
